From patent US20200095333A1 (published 2020) come the findings set out here.

The target of assay [1] is T1, sCD16A (soluble CD16A, FcgammaRIIIA) (human, UniProt P08637 17-208).
T1 construct: extracellular domain; given only as soluble; used immobilised (SPR), coated, or biotin/HRP-labelled as probe (ELISA); also called CD16 antigen; sCD16A-Biotin
The assay is described as follows: sandwich ELISA, CD32B coat, HRP-CD16 probe.

Assay [2] addresses T2, sCD32B (soluble CD32B, FcgammaRIIB) (human, UniProt P31994 43-217).
T2 construct: extracellular domain; also called soluble CD32B ectodomain
T2 sequence: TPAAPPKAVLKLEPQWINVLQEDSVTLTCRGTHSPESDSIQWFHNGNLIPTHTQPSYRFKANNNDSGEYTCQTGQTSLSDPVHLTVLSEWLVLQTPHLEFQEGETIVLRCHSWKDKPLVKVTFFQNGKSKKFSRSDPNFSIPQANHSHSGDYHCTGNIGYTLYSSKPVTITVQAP
Put plainly: sandwich ELISA, CD32B coat, HRP-CD16 probe.

The target of assay [3] is T1, sCD16A (soluble CD16A, FcgammaRIIIA). Put plainly: SPR (BIAcore), receptor immobilised, diabody 6.25-200 nM.
The target in assay [4] is T3, human serum albumin (HSA) (human, UniProt P02768 25-609).
T3 construct: also called human albumin; HRP-human albumin
The assay is described as follows: HSA binding class (+ = 0.1-0.4).

Assay [5] concerns the target T3, human serum albumin (HSA). Put plainly: deimmunized ABD ELISA (FIG. 57).
For assay [6], the target named is T3, human serum albumin (HSA). Put plainly: HSA binding class (+++ = 0.7-1.0).
The target in assay [7] is T3, human serum albumin (HSA). Put plainly: albumin binding of ABD variants.
Assay [8] concerns the target T1, sCD16A (soluble CD16A, FcgammaRIIIA). The assay is described as follows: dual ELISA, CD16 coat, biotinylated sCD32B detection.
For assay [9], the target named is T2, sCD32B (soluble CD32B, FcgammaRIIB). Described as above.
Assay [10] has as its target T3, human serum albumin (HSA). Put plainly: ELISA, HSA coat, biotinylated sCD32B detection.
In assay [11] the target is T4, soluble CD16A(158F) (human, UniProt P08637 17-208).
T4 construct: extracellular domain; also called CD16A(F158); sCD16A
T4 sequence (P08637 17-208): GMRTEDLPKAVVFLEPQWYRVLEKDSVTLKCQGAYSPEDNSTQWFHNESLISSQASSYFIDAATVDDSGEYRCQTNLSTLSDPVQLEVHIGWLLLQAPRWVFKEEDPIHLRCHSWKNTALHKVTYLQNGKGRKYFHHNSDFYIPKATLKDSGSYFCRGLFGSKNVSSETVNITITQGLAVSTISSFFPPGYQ
The assay is described as follows: SPR, HSA immobilised, ABD-DART then 200 nM CD32B and 200 nM CD16A(F158).

The target in assay [12] is T1, sCD16A (soluble CD16A, FcgammaRIIIA). Put plainly: sandwich ELISA, CD32B coat, CD16A probe.
In assay [13] the target is T2, sCD32B (soluble CD32B, FcgammaRIIB). Put plainly: sandwich ELISA, CD32B coat, CD16A probe.
Assay [14] deals with T5, mCD32B (murine CD32B) (murine, UniProt P08101 30-210).
T5 sequence: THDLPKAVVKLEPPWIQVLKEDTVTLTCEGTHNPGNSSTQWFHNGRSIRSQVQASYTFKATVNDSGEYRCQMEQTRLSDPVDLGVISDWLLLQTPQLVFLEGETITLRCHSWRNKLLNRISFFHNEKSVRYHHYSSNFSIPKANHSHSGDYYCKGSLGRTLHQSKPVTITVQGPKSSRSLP
Put plainly: mCD32-hCD16A binding ELISA.

Assay [15] deals with T1, sCD16A (soluble CD16A, FcgammaRIIIA). The assay is described as follows: mCD32-hCD16A binding ELISA.

T1 sequence (P08637 17-208): as the sequence (P08637 17-208) above

B1: product of co-expression of constructs 7 and 8 (pMGX0677+pMGX0678), tetrameric IgG-like diabody (bispecific antibody)
chain 1: EIVLTQSPDFQSVTPKEKVTFTCRTSQSIGTNIHWYQQKPDQSPKLLIKEVSESISGVPSRFSGSGSGTDFTLTINSLEAEDAATYYCQQSNTWPFTFGGGTKVEIKGGGSGGGGQVTLRESGPALVKPTQTLTLTCTFSGFSLSTSGMGVGWIRQPPGKALEWLAHIWWDDDKRYNPALKSRLTISKDTSKNQVVLTMTNMDPVDTATYYCAQINPAWFAYWGQGTLVTVSSLGGCFNRGEC
chain 2: not shown
For the molecule B1, the binding result in assay [1] and in assay [2] was “binds” each time.

B2: h3G8 CMD (covalent monospecific diabody, construct 3) (other)
chain: DIVMTQSPDSLAVSLGERATINCKASQSVDFDGDSFMNWYQQKPGQPPKLLIYTTSNLESGVPDRFSGSGSGTDFTLTISSLQAEDVAVYYCQQSNEDPYTFGQGTKLEIKGGGSGGGGQVTLRESGPALVKPTQTLTLTCTFSGFSLSTSGMGVGWIRQPPGKALEWLAHIWWDDDKRYNPALKSRLTISKDTSKNQVVLTMTNMDPVDTATYYCAQINPAWFAYWGQGTLVTVSSLGGC
modifications: covalent homodimer; interchain disulfide through the C-terminal LGGC cysteines
notes: covalent homodimer diabody; also called h3G8 diabody
In turn, B2 showed a Kd in assay [3] of 18 nM.

B3: ABD I65A/N66D/V71A (other)
chain: LAEAKVLANRELDKYGVSDYYKNLADNAKTAEGVKALIDEILAALP
notes: also called 65A/66D/71A
Consider B3, for which the HSA binding in assay [4] lay in the range of 0.1 to 0.4.

B4: variant ABD L64A, I65A and D79A (other)
chain: LAEAKVLANRELDKYGVSDYYKNAANNAKTVEGVKALIAEILAALP
Take B4: in [5], the binding result was “binds”.

B5: ABD N66E (other)
chain: LAEAKVLANRELDKYGVSDYYKNLIENAKTVEGVKALIDEILAALP
With B5, the HSA binding in [6] fell in the range of 0.7 to 1.

B6: ABD L64G/N66D/V71A (other)
chain: LAEAKVLANRELDKYGVSDYYKNGIDNAKTAEGVKALIDEILAALP
notes: also called 64G/66D/71A
B6 came in with an HSA binding in assay [4] of 0.1 to 0.4.

B7: variant ABD N66S, T70S and D79A (other)
chain: LAEAKVLANRELDKYGVSDYYKNLISNAKSVEGVKALIAEILAALP
Take B7: the binding result in assay [5] was “binds”.

B8: ABD N66D/T70S/V71A (ABD (DSA)) (other)
chain: LAEAKVLANRELDKYGVSDYYKNLIDNAKSAEGVKALIDEILAALP
As for B8, the binding result in [7] is on record as “binds”.

B9: ABD L64A/N66D/V71A (other)
chain: LAEAKVLANRELDKYGVSDYYKNAIDNAKTAEGVKALIDEILAALP
notes: also called 64A/66D/71A
In turn, B9 registered an HSA binding in assay [4] of 0.1 to 0.4.

B10: ABD N66D (other)
chain: LAEAKVLANRELDKYGVSDYYKNLIDNAKTVEGVKALIDEILAALP
With B10, the HSA binding in assay [6] was in the range of 0.7 to 1.

B11: product of constructs 1 and 9 (pMGX0669+pMGX0719) (bispecific antibody)
chain 1: EIVLTQSPDFQSVTPKEKVTFTCRTSQSIGTNIHWYQQKPDQSPKLLIKEVSESISGVPSRFSGSGSGTDFTLTINSLEAEDAATYYCQQSNTWPFTFGGGTKVEIKGGGSGGGGQVTLRESGPALVKPTQTLTLTCTFSGFSLSTSGMGVGWIRQPPGKALEWLAHIWWDDDKRYNPALKSRLTISKDTSKNQVVLTMTNMDPVDTATYYCAQINPAWFAYWGQGTLVTVSSLGGC
chain 2: not shown
notes: hinge-Fc at the N-terminus of the heavier chain; also called constructs 9+1; copies: 2 + 2
As to B11, the binding result in assay [1] and in [2] was “binds” each time.

B12: product of constructs 1 and 10 (pMGX0669+pMGX0718) (bispecific antibody)
chain 1: EIVLTQSPDFQSVTPKEKVTFTCRTSQSIGTNIHWYQQKPDQSPKLLIKEVSESISGVPSRFSGSGSGTDFTLTINSLEAEDAATYYCQQSNTWPFTFGGGTKVEIKGGGSGGGGQVTLRESGPALVKPTQTLTLTCTFSGFSLSTSGMGVGWIRQPPGKALEWLAHIWWDDDKRYNPALKSRLTISKDTSKNQVVLTMTNMDPVDTATYYCAQINPAWFAYWGQGTLVTVSSLGGC
chain 2: not shown
notes: Fc at the N-terminus of the heavier chain; also called constructs 10+1; copies: 2 + 2
B12: the binding result in assay [1] and in assay [2] was “binds” throughout.

B13: hCD16-hCD32B ABD-DART (bispecific antibody)
chain 1: DIVMTQSPDSLAVSLGERATINCKASQSVDFDGDSFMNWYQQKPGQPPKLLIYTTSNLESGVPDRFSGSGSGTDFTLTISSLQAEDVAVYYCQQSNEDPYTFGQGTKLEIKGGGSGGGGQVQLVQSGAEVKKPGASVKVSCKASGYTFTNYWIHWVRQAPGQGLEWIGVIDPSDTYPNYNKKFKGRVTMTVVVSTSTAYMELRSLRSDDTAVYYCARNGDSDYYSGMDYWGQGTTVTVSSGGCGGGKVAALKEKVAALKEKVAALKEKVAALKEGGGNS
chain 2: EIVLTQSPDFQSVTPKEKVTFTCRTSQSIGTNIHWYQQKPDQSPKLLIKEVSESISGVPSRFSGSGSGTDFTLTINSLEAEDAATYYCQQSNTWPFTFGGGTKVEIKGGGSGGGGQVTLRESGPALVKPTQTLTLTCTFSGFSLSTSGMGVGWIRQPPGKALEWLAHIWWDDDKRYNPALKSRLTISKDTSKNQVVLTMTNMDPVDTATYYCAQINPAWFAYWGQGTLVTVSSGGCGGGEVAALEKEVAALEKEVAALEKEVAALEKGGGNSLAEAKVLANRELDKYGVSDYYKNLINNAKTVEGVKALIDEILAALP
notes: also called hCD16-hCD32B EK ABD-DART; DART ABD fusion
Regarding B13, the binding result in assay [8], in [9], in assay [10] and in [11] was “binds” throughout.

B14: product of constructs 11 and 12 (bispecific antibody)
chain 1: not shown
chain 2: DIVMTQSPDSLAVSLGERATINCKASQSVDFDGDSFMNWYQQKPGQPPKLLIYTTSNLESGVPDRFSGSGSGTDFTLTISSLQAEDVAVYYCQQSNEDPYTFGQGTKLEIKGGGSGGGGQVQLVQSGAEVKKPGASVKVSCKASGYTFTNYWIHWVRQAPGQCLEWIGVIDPSDTYPNYNKKFKGRVTMTVVVSTSTAYMELRSLRSDDTAVYYCARNGDSDYYSGMDYWGQGTTVTVSSFNRGEC
notes: C-terminal hinge-Fc; engineered cysteines G105C (2B6 VL) and G44C (2B6 VH); copies: 2 + 2
Consider B14, for which the binding result in assay [1] and in assay [2] was “binds” each time.

B15: product of constructs 15 and 16 (pMGX0752+pMGX0753) (bispecific antibody)
chain 1: EIVLTQSPDFQSVTPKEKVTFTCRTSQSIGTNIHWYQQKPDQSPKLLIKEVSESISGVPSRFSGSGSGTDFTLTINSLEAEDAATYYCQQSNTWPFTFGGGTKVEIKGGGSGGGGQVTLRESGPALVKPTQTLTLTCTFSGFSLSTSGMGVGWIRQPPGKALEWLAHIWWDDDKRYNPALKSRLTISKDTSKNQVVLTMTNMDPVDTATYYCAQINPAWFAYWGQGTLVTVSSFNRGEC
chain 2: DIVMTQSPDSLAVSLGERATINCKASQSVDFDGDSFMNWYQQKPGQPPKLLIYTTSNLESGVPDRFSGSGSGTDFTLTISSLQAEDVAVYYCQQSNEDPYTFGQGTKLEIKGGGSGGGGQVQLVQSGAEVKKPGASVKVSCKASGYTFTNYWIHWVRQAPGQGLEWIGVIDPSDTYPNYNKKFKGRVTMTVVVSTSTAYMELRSLRSDDTAVYYCARNGDSDYYSGMDYWGQGTTVTVSSVEPKSC
notes: Hu2B6VL-Hu3G8VH-FNRGEC and Hu3G8VL-Hu2B6VH-VEPKSC; also called construct 15/16 combination
B15: the binding result in [12] and in assay [13] was “binds” throughout.

B16: Ig-like tetravalent DART (2.4G2-3G8-hKappa / 3G8-2.4G2-hG1) (bispecific antibody)
chain 1: DVQMTQSPSNLAASPGESVSINCKASESISKYLAWYLQKPGKANKLLMYDGSTLQSGIPSRFSGSGSGTDFTLTIRSLEPEDFGLYYCQQHYEYPATFGSGTKLEIKGGGSGGGGQVTLKESGPGILQPSQTLSLTCSFSGFSLRTSGMGVGWIRQPSGKGLEWLAHIWWDDDKRYNPALKSRLTISKDTSSNQVFLKIASVDTADTATYYCAQINPAWFAYWGQGTLVTVSSLGGCGGGSRTVAAPSVFIFPPSDEQLKSGTASVVCLLNNFYPREAKVQWKVDNALQSGNSQESVTEQDSKDSTYSLSSTLTLSKADYEKHKVYACEVTHQGLSSPVTKSFNRGEC
chain 2: not shown
notes: also called Ig DART 1; Ig DART 2
In the case of B16, the binding result in assay [14] and in [15] was “binds” throughout.
